The source of these data is US20220119534A1 (DRAGONFLY THERAPEUTICS, published 2022).

In assay [1] the target is T1, Human CLEC12A-His (human, UniProt Q5QGZ9 65-265).
T1 construct: Recombinant soluble protein made in house (Dragonfly Tx); The hCLEC12A spot of the HuProt array is written under this molecule as well; also called hCLEC12A-His; hCLEC12A; not shown: His tag
T1 sequence: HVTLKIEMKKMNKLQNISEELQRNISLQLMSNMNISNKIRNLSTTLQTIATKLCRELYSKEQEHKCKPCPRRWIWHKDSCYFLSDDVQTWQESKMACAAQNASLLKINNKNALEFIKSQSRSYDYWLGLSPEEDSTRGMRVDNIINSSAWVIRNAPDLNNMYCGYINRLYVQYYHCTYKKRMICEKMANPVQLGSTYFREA
Description: SPR Biacore 8K 37 C; TriNKET captured on anti-hFc chip, hCLEC12A-His as analyte; 1:1 fit; control, n=4.

Assay [2] has as its target T2, mFc-hNKG2D (human, UniProt P26718 73-216).
T2 construct: extracellular domain; Made in house (Dragonfly Tx); the order of tag and ECD follows the name mFc-hNKG2D; also called mFc-tagged human NKG2D; not shown: mouse Fc tag
T2 sequence (looked up): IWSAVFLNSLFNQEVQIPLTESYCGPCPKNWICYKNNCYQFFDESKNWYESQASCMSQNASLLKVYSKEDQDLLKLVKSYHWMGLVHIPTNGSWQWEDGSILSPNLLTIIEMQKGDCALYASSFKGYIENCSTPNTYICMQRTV
Description: SPR Biacore 8K 37 C; mFc-hNKG2D captured on anti-mFc chip, TriNKET as analyte; steady state fit; after 2 wks 40 C at pH 5.0.

Assay [3] addresses T1, Human CLEC12A-His. Description: SPR Biacore 8K 37 C; TriNKET captured on anti-hFc chip, hCLEC12A-His as analyte; classical 1:1 fit. On the technique in general: Surface plasmon resonance follows binding to a sensor surface in real time, without labels.
Description: Briefly, human Fc specific antibodies were covalently immobilized at a density ˜8000-10000 resonance units (RU) on carboxy methyl dextran matrix of a CM5 biosensor chip via amine-coupling chemistry to create an anti-hFc IgG chip. […] Association was monitored for 300 seconds and dissociation was monitored for 600 seconds. Surfaces were regenerated between cycles with three pulses of 10 mM glycine-HCl, pH 1.7 injected for 20 seconds at 100 μL/min. HBS-EP+ (1×) with 0.1 mg/mL BSA buffer was used throughout the experiment. Data were analyzed using Biacore 8K Insight Evaluation software (GE Healthcare).
In assay [4] the target is T3, Human CD16a V158 (human, UniProt P08637 17-208, biotinylated).
T3 construct: Bought recombinant receptor; also called hCD16a (V158); hFcγRIIIa V158
The experiment in a line: SPR, hCD16a V158 captured, kinetic fit.

Assay [5] concerns the target T4, Human CLEC12A-His (human, UniProt Q5QGZ9 65-265).
T4 construct: Recombinant soluble protein made in house; also called hCLEC12A-His; hCLEC12A; not shown: His tag
T4 sequence: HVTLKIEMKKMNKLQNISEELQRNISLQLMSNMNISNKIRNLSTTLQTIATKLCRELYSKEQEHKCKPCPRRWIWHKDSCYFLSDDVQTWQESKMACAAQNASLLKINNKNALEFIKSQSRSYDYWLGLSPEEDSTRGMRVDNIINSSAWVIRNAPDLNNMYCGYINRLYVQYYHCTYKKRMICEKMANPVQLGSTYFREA
Description: SPR, hCLEC12A (K244) WT.

Assay [6] concerns the target T5, mFc-hNKG2D (human, UniProt P26718 73-216).
T5 construct: extracellular domain; Recombinant mFc-tagged NKG2D dimer, made in house; also called human NKG2D; not shown: mouse Fc tag
T5 sequence (looked up): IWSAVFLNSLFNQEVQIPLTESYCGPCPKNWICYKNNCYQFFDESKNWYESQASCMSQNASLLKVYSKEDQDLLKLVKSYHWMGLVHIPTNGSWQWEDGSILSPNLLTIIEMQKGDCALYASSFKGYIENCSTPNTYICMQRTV
The experiment in a line: SPR; control sample (CST pH 7.0 study).

Assay [7] addresses T4, Human CLEC12A-His. The experiment in a line: SPR; control sample (CST pH 7.0 study).
Assay [8] deals with T3, Human CD16a V158. Description: SPR; control sample (CST pH 7.0 study).
In assay [9] the target is T6, recombinant human CD32a H131 (human, UniProt P12318 36-218, limits assumed, biotinylated).
T6 construct: also called FcγRIIa H131
T6 sequence (looked up): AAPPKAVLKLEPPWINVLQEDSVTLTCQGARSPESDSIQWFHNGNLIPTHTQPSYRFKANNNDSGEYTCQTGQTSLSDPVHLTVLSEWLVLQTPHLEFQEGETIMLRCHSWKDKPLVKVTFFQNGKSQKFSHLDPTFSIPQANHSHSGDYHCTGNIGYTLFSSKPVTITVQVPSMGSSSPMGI
The experiment in a line: SPR 25C, steady state.

Assay [10] has as its target T7, human CLEC12A expressed on cells (human, UniProt Q5QGZ9 1-265).
T7 construct: Transduced isogenic cells or endogenous expression on AML cells; also called RMA-hCLEC12A; Ba/F3-hCLEC12A
T7 sequence: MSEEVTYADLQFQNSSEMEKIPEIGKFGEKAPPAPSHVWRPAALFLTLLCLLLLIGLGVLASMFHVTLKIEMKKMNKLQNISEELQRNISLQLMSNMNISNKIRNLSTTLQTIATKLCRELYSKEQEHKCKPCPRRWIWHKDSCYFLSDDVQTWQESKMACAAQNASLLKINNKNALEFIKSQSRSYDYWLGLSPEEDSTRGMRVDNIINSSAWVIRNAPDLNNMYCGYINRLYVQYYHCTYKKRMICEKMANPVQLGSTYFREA
The experiment in a line: flow cytometry, HL-60. (In general: In flow cytometry, cells or beads pass a laser one at a time.)

Where “and” joins values, the source holds several entries; their conditions need not be identical. Equal entries are not always repeated.

T3 sequence (P08637 17-208 F176V limits assumed): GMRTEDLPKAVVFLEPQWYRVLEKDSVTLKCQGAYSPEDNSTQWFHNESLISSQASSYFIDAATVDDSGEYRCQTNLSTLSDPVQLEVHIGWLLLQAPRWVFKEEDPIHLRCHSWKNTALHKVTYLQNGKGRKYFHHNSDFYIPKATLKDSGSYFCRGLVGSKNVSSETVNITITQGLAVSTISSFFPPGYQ

B1: F3'-1602 TriNKET (bispecific antibody, human IgG1, kappa)
chain: QLQLQESGPGLVKPSETLSLTCTVSGFSLTNYGLHWIRQPPGKCLEWIGVIWSGGKTDYNPSLKSRVTISKDTSKNQFSLKLSSVQAADTAVYYCAKYDYDDSLDYWGQGTLVTVSSGGGGSGGGGSGGGGSGGGGSDIQMTQSPSSLSASVGDRVTITCHASQNINFWLSWYQQKPGKAPKLLIYEASNLHTGVPSRFSGSGSGTRFTLTISSLQPEDIATYYCQQSHSYPLTFGCGTKLEIKGSDKTHTCPPCPAPELLGGPSVFLFPPKPKDTLMISRTPEVTCVVVDVSHEDPEVKFNWYVDGVEVHNAKTKPREEQYNSTYRVVSVLTVLHQDWLNGKEYKCKVSNKALPAPIEKTISKAKGQPREPRVYTLPPCRDELTKNQVSLTCLVKGFYPSDIAVEWESNGQPENNYKTTPPVLVSDGSFTLYSKLTVDKSRWQQGNVFSCSVMHEALHNHYTQKSLSLSPG
heavy: EVQLVESGGGLVKPGGSLRLSCAASGFTFSSYSMNWVRQAPGKGLEWVSSISSSSSYIYYADSVKGRFTISRDNAKNSLYLQMNSLRAEDTAVYYCARGAPIGAAAGWFDPWGQGTLVTVSSASTKGPSVFPLAPSSKSTSGGTAALGCLVKDYFPEPVTVSWNSGALTSGVHTFPAVLQSSGLYSLSSVVTVPSSSLGTQTYICNVNHKPSNTKVDKKVEPKSCDKTHTCPPCPAPELLGGPSVFLFPPKPKDTLMISRTPEVTCVVVDVSHEDPEVKFNWYVDGVEVHNAKTKPREEQYNSTYRVVSVLTVLHQDWLNGKEYKCKVSNKALPAPIEKTISKAKGQPREPQVCTLPPSRDELTENQVSLTCLVKGFYPSDIAVEWESNGQPENNYKTTPPVLDSDGSFFLYSWLTVDKSRWQQGNVFSCSVMHEALHNHYTQKSLSLSPG
light: DIQMTQSPSSVSASVGDRVTITCRASQGISSWLAWYQQKPGKAPKLLIYAASSLQSGVPSRFSGSGSGTDFTLTISSLQPEDFATYYCQQGVSFPRTFGGGTKVEIKRTVAAPSVFIFPPSDEQLKSGTASVVCLLNNFYPREAKVQWKVDNALQSGNSQESVTEQDSKDSTYSLSSTLTLSKADYEKHKVYACEVTHQGLSSPVTKSFNRGEC
notes: Trispecific F3' format: CLEC12A scFv-Fc paired with NKG2D Fab-Fc; Stressed and control samples of the stability studies are the same molecule; also called AB0237
In general, Kd refers to the concentration at which binding is half-saturated. One may read the koff as the first-order rate constant of dissociation. Read a low koff as a long-lived complex. The term kon denotes the second-order rate constant of association. Higher therefore signals faster complex formation. In [1], B1 came in with a Kd of 0.638 nM, a koff of 0.000433 s⁻¹ and a kon of 678000 M⁻¹ s⁻¹. The molecule also returned a Kd in assay [2] of 677 nM. Also, in assay [3], binding was characterised by a dissociation constant (Kd) of 0.8 nM, the koff was determined as 0.000895 s⁻¹ and the kon was determined as 1.11e+06 M⁻¹ s⁻¹.

B2: AB0192 TriNKET (other)
chain: EVQLVESGGGVVQPGGSLRLSCAASGFTFNAFGMHWVRQAPGKCLEWVAFISSGSTSIYYANTVKGRFTISRDNSKNTLYLQMNSLRAEDTAVYYCARDGYPTGGAMDYWGQGTSVTVSSGGGGSGGGGSGGGGSGGGGSDIQMTQSPSSLSASVGDRVTITCKASQDIYNYLSWFQQKPGKAPKPLIYRANILVSGVPSRFSGSGSGQDYTFTISSLQPEDIATYYCLQFDAFPFTFGCGTKLEIKGSDKTHTCPPCPAPELLGGPSVFLFPPKPKDTLMISRTPEVTCVVVDVSHEDPEVKFNWYVDGVEVHNAKTKPREEQYNSTYRVVSVLTVLHQDWLNGKEYKCKVSNKALPAPIEKTISKAKGQPREPRVYTLPPCRDELTKNQVSLTCLVKGFYPSDIAVEWESNGQPENNYKTTPPVLVSDGSFTLYSKLTVDKSRWQQGNVFSCSVMHEALHNHYTQKSLSLSPG
heavy: EVQLVESGGGLVKPGGSLRLSCAASGFTFSSYSMNWVRQAPGKGLEWVSSISSSSSYIYYADSVKGRFTISRDNAKNSLYLQMNSLRAEDTAVYYCARGAPIGAAAGWFDPWGQGTLVTVSSASTKGPSVFPLAPSSKSTSGGTAALGCLVKDYFPEPVTVSWNSGALTSGVHTFPAVLQSSGLYSLSSVVTVPSSSLGTQTYICNVNHKPSNTKVDKKVEPKSCDKTHTCPPCPAPELLGGPSVFLFPPKPKDTLMISRTPEVTCVVVDVSHEDPEVKFNWYVDGVEVHNAKTKPREEQYNSTYRVVSVLTVLHQDWLNGKEYKCKVSNKALPAPIEKTISKAKGQPREPQVCTLPPSRDELTENQVSLTCLVKGFYPSDIAVEWESNGQPENNYKTTPPVLDSDGSFFLYSWLTVDKSRWQQGNVFSCSVMHEALHNHYTQKSLSLSPG
light: DIQMTQSPSSVSASVGDRVTITCRASQGISSWLAWYQQKPGKAPKLLIYAASSLQSGVPSRFSGSGSGTDFTLTISSLQPEDFATYYCQQGVSFPRTFGGGTKVEIKRTVAAPSVFIFPPSDEQLKSGTASVVCLLNNFYPREAKVQWKVDNALQSGNSQESVTEQDSKDSTYSLSSTLTLSKADYEKHKVYACEVTHQGLSSPVTKSFNRGEC
notes: the condition stands under assay; also called AB0192 Lot AB0192-005
For B2, the Kd in assay [4] is 184 nM and 173 nM and 177 nM; in [5], 1.65 nM; in assay [6] it was 588 nM; in assay [7], 1.81 nM; in assay [8] it was 171 nM. The koff in assay [4] is 0.019 s⁻¹ and 0.0201 s⁻¹ and 0.0206 s⁻¹; in assay [5] it was 0.00115 s⁻¹; in assay [6] it was 0.122 s⁻¹; in assay [7], 0.0014 s⁻¹; in [8], 0.0199 s⁻¹. For the same molecule, the kon was 103000 M⁻¹ s⁻¹ and 116000 M⁻¹ s⁻¹ in assay [4]; 698000 M⁻¹ s⁻¹ in assay [5]; 208000 M⁻¹ s⁻¹ in [6]; 776000 M⁻¹ s⁻¹ in [7]; 117000 M⁻¹ s⁻¹ in assay [8].

B3: F3'-1602 TriNKET (other)
chain: QLQLQESGPGLVKPSETLSLTCTVSGFSLTNYGLHWIRQPPGKCLEWIGVIWSGGKTDYNPSLKSRVTISKDTSKNQFSLKLSSVQAADTAVYYCAKYDYDDSLDYWGQGTLVTVSSGGGGSGGGGSGGGGSGGGGSDIQMTQSPSSLSASVGDRVTITCHASQNINFWLSWYQQKPGKAPKLLIYEASNLHTGVPSRFSGSGSGTRFTLTISSLQPEDIATYYCQQSHSYPLTFGCGTKLEIKGSDKTHTCPPCPAPELLGGPSVFLFPPKPKDTLMISRTPEVTCVVVDVSHEDPEVKFNWYVDGVEVHNAKTKPREEQYNSTYRVVSVLTVLHQDWLNGKEYKCKVSNKALPAPIEKTISKAKGQPREPRVYTLPPCRDELTKNQVSLTCLVKGFYPSDIAVEWESNGQPENNYKTTPPVLVSDGSFTLYSKLTVDKSRWQQGNVFSCSVMHEALHNHYTQKSLSLSPG
heavy: EVQLVESGGGLVKPGGSLRLSCAASGFTFSSYSMNWVRQAPGKGLEWVSSISSSSSYIYYADSVKGRFTISRDNAKNSLYLQMNSLRAEDTAVYYCARGAPIGAAAGWFDPWGQGTLVTVSSASTKGPSVFPLAPSSKSTSGGTAALGCLVKDYFPEPVTVSWNSGALTSGVHTFPAVLQSSGLYSLSSVVTVPSSSLGTQTYICNVNHKPSNTKVDKKVEPKSCDKTHTCPPCPAPELLGGPSVFLFPPKPKDTLMISRTPEVTCVVVDVSHEDPEVKFNWYVDGVEVHNAKTKPREEQYNSTYRVVSVLTVLHQDWLNGKEYKCKVSNKALPAPIEKTISKAKGQPREPQVCTLPPSRDELTENQVSLTCLVKGFYPSDIAVEWESNGQPENNYKTTPPVLDSDGSFFLYSWLTVDKSRWQQGNVFSCSVMHEALHNHYTQKSLSLSPG
light: DIQMTQSPSSVSASVGDRVTITCRASQGISSWLAWYQQKPGKAPKLLIYAASSLQSGVPSRFSGSGSGTDFTLTISSLQPEDFATYYCQQGVSFPRTFGGGTKVEIKRTVAAPSVFIFPPSDEQLKSGTASVVCLLNNFYPREAKVQWKVDNALQSGNSQESVTEQDSKDSTYSLSSTLTLSKADYEKHKVYACEVTHQGLSSPVTKSFNRGEC
notes: CLEC12A scFv-Fc, NKG2D A49MI Fab-Fc, human IgG1 Fc; also called AB0237
With B3, in assay [9], the Kd is 900 nM and 800 nM. In addition, the “fold lower EC50 than AB0010” value in assay [10] is about 2 fold.
